This is an account of results in publication PMC4529489.

The target in test [1] is Human Ubc13 R85S (human). The test is described as follows: ITC.
In test [2] the target is Human Ubc13, wild type (human). As to the kind of experiment: ITC.
For test [3], the target named is Ube2V2 (Homo sapiens) (UniProt Q15819). To be noted: cited from earlier work.

On to Human Ube2V2 (natural protein), for which the fold increase of Kd against WT Ubc13 in test [1] is over 30 times. In test [2], Human Ube2V2 E20A (natural protein) showed a fold increase of Kd against WT Ube2V2 of 4 times. Regarding Ubc13 (from UniProt P61088), the Kd – broadly, the free concentration of one partner at which half of the binding sites on the other are occupied at equilibrium, for simple one-to-one binding – in test [3] is 50 nM.
